Consider 3 molecules from US12708119B2, “Methods of reducing or preventing clostridioides difficile colonization” (priority 2020, dated 2026).

The test system of series [1] is Clostridioides difficile ATCC® 43598™ spores. Kind of series: Sporicidal enhancement of CotE_H2 and CDec_D1 aptamers in combination with Clinell sporicidal solution: growth / MSC (Examples 4 and 6). Type of series: cell-based. How it is done:
(§1) Prior to testing, CotE_H2 aptamers were diluted in nuclease free water to a concentration of 80 μM. The aptamers were folded by heating to 95° C. in a digital dry bath for 5 minutes and then immediately placed on ice and cooled to 2° C. The aptamers were stored at 2-4° C. while in use. A Clostridioides difficile SH11 bacterial spore inoculum was prepared to 1×10^7±5×10^6 CFUmL^−1 according to internal procedures. The inoculum was confirmed by serial dilution and plating out the resultant suspensions onto brain heart infusion agar supplemented with horse blood and yeast (BHI-YHT). CotE_H2 aptamers were further diluted in “TbKst” buffer to obtain 2× in-test concentrations (40, 20, 10 and 5 μM). Ten microlitres of C. difficile spores were added to 10 μL of each 2× in-test concentration of CotE_H2 aptamer. The spore suspension was pipette mixed and incubated with CotE_H2 aptamer at room temperature for one hour. The spores were then washed three times by centrifuging at 13,400 RPM for 10 minutes. In each wash the supernatant was removed, and the pellet was resuspended in 100 μL of “TbKst” buffer. Following the third wash, the spores were resuspended in 100 μL of “TbKst” buffer and vortexed to obtain a homogenous solution.
(§2) A total of six 2× in-test concentrations (1:2 dilutions) of the sporicidal test agent were prepared from the stock (100%, 50%, 25%, 12.5%, 6.25%, 3.125%). Negative and positive control solutions were also prepared. Ten microliter aliquots of each sporicidal test agent concentration or control solution were added to the wells of a 96-well plate. A 10 μL aliquot of the aptamer-spore suspension was added to each test agent or control solution and pipette mixed. The final in-test concentrations of the sporicidal test agent were 50%, 25%, 12.5%, 6.25%, 3.125%, 1.5625%. The plates were then incubated for 15 minutes at 37° C.±2° C. in an anaerobic environment. Following incubation, 50 μL of GH neutraliser was added to each well and pipette mixed. A 10 μL aliquot of neutralised suspension was taken from each well and transferred to an agar plate and incubated for 48 hours at 37° C.±2° C. in an anaerobic environment. Growth was recorded as “+” and no growth as “−”. The minimum sporicidal concentration (MSC) for each spore and aptamer concentration was identified as the lowest concentration with no growth for all replicates. […] The test was repeated without the presence of the aptamers and without the presence of the Clinell® sporicidal solution. Testing was also repeated using C. difficile ATCCR 43598™ and C. difficile R20291 spores. Testing was performed in triplicate. The method was repeated with CDec_D1 aptamers for all three strains of C. difficile spores.

The subject of series [2] is Clostridioides difficile SH11 spores. Described as above. In kind it is cell-based. Particulars: for effect of the addition of aptamer on the sporicidal capabilities of Clinell sporicidal solution / growth of spores in the presence of aptamer alone: SH11 spores. The procedure: as §1, §2
Series [3] relates to Clostridioides difficile R20291 spores. Described as above. In kind it is cell-based. Particulars: for effect of the addition of aptamer on the sporicidal capabilities of Clinell sporicidal solution / growth of spores in the presence of aptamer alone: R20291 spores. How it is done: as §1, §2
For series [4], the system named is C. difficile R20291 spores. Kind of series: Sporicidal enhancement of CDiff_F1 aptamer in combination with Clinell sporicidal solution: growth / MSC (Example 3). Particulars: for Growth observed after recovering viable C. difficile R20291 spores: Aptamers only, treatment 15 minutes. In kind it is cell-based, Clostridioides difficile. Set-up: key to Growth observed after recovering viable C. difficile R20291 spores: Growth was recorded as “+”; no growth as “−”. The procedure:
(§3) Prior to testing, the CDiff_F1 aptamers were diluted in nuclease free water to a concentration of 80 μM. The aptamers were folded by heating to 95° C. in a digital dry bath for 5 minutes and then immediately placed on ice and cooled to 2° C. The aptamers were stored at 2-4° C. while in use. A C. difficile SH11 bacterial spore inoculum was prepared to 1×108±5×10^7 CFUmL−1 according to internal procedures. The inoculum was confirmed by serial dilution and plating out the resultant suspensions onto brain heart infusion agar supplemented with horse blood and yeast (BHI-YHT). The CDiff_F1 aptamers were further diluted in “BB+Mg2+” buffer to obtain two times in-test concentrations ([…]). Ten microlitres of C. difficile spores were added to 10 μL of each two times in-test concentration of CDiff_F1 aptamer. The spore suspension was pipette mixed and incubated with CDiff_F1 aptamer at room temperature for one hour. The spores were then washed three times by centrifuging at 13,400 RPM for 10 minutes. In each wash the supernatant was removed, and the pellet was resuspended in 100 μL of “BB+Mg2+” buffer. Following the third wash, the spores were resuspended in 100 μL of “BB+Mg2+” buffer and vortexed to obtain a homogenous solution.
(§4) A total of six, two times in-test concentrations of each sporicidal test agent were prepared from the stock (100%, 50%, 25%, 12.5%, 6.25%, 3.125%). Negative and positive control solutions were also prepared. Ten microliter aliquots of each sporicidal test agent concentration or control solution were added to the wells of a 96-well plate. A 10 μL aliquot of the aptamer-spore suspension was added to each test agent or control solution and pipette mixed. The final in-test concentrations of each sporicidal test agent were 50%, 25%, 12.5%, 6.25%, 3.125%, 1.5625%. The plates were then incubated for 15 minutes at 37° C.±2° C. in an anaerobic environment. Following incubation, 50 μL of GH neutraliser was added to each well and pipette mixed. A 10 μL aliquot of neutralised suspension was taken from each well and transferred to an agar plate and incubated for 48 hours at 37° C.±2° C. in an anaerobic environment. Growth was recorded as “+” and no growth as “−”. The minimum sporicidal concentration (MSC) for each concentration was identified as the lowest concentration with no growth for all replicates. […] The test was repeated without the presence of the aptamers and without the presence of the Clinell® sporicidal solution. Testing was also repeated using C. difficile ATCC® 43598™ and C. difficile R20291 spores. Testing was performed in triplicate.

Series [5] relates to C. difficile ATCC® 43598™ spores. The description is as above. Particulars: for Growth observed after recovering viable C. difficile ATCC 43598 spores: Aptamers only, treatment 15 minutes. Type of series: cell-based, Clostridioides difficile. Set-up: key to Growth observed after recovering viable C. difficile ATCC 43598 spores: Growth was recorded as “+”; no growth as “−”. How it is done: as §3, §4

Series [6] deals with C. difficile SH11 spores. The series is described as above. In kind it is cell-based, Clostridioides difficile. Set-up: key to Growth observed after recovering viable spores: Growth was recorded as “+”; no growth as “−”. Particulars: for Growth observed after recovering viable spores: aptamers only, treatment 15 minutes. How it is done: as §3, §4
Setting [7] is: C. difficile ATCC ® 43598 ™ spores, aptamer without Clinell sporicidal solution.
[8] abbreviates: C. difficile SH11 spores, aptamer without Clinell sporicidal solution.
The mark [9] stands for this setting: any concentration of CDec_D1 aptamers without Clinell sporicidal solution.
[10] abbreviates: C. difficile R20291 spores, aptamer without Clinell sporicidal solution.
Setting [11] is: any concentration of CotE_H2 aptamers without Clinell sporicidal solution.

“Also recorded” adds a separate entry of the source.

B1: CDec_D1: aptamer against CdeC, SEQ ID NO: 6; Table 4 lists fragments SEQ ID NO: 38, 39 under CdeC_D1 (nucleic acid)
DNA: CCAGTGTAGACTACTCAATGCCGTGGACTGGTCGGGTTTGGATTCGGCAGATGAATCAGTAGTACTATCCACAGGTCAACC
modifications: DNA, backbone and methylation of C not given here
B1: the “effect of the addition of aptamer on the sporicidal capabilities of Clinell sporicidal solution” value (“effect of the addition of aptamer” below) in series [1] (ATCC 43598 spores), in series [2] and in series [3] was “enhanced” each time. Besides, the “growth of spores in the presence of aptamer alone” value (“growth of spores” for short) in series [1] (ATCC 43598 spores, any concentration of CDec_D1 aptamers without Clinell sporicidal solution) is reported as “unaffected”; in series [2] (setting [9]), “unaffected”; in series [3] (setting [9]), “unaffected”. Besides, the “MSC of CDec_D1” value in series [1] (setting [7]), in series [2] (setting [8]) and in series [3] (setting [10]) was above 20 µM in each case.

B2: CotE_H2: aptamer against CotE, SEQ ID NO: 11; Table 4 lists fragments SEQ ID NO: 26-30 under the same ID (nucleic acid)
DNA: CCAGTGTAGACTACTCAATGCGGCTGTGTGACTTGACCTTTGGAATGGGTGGGAGGGATGGGTACTATCCACAGGTCAACC
modifications: listed as DNA, chemistry not given here
In the case of B2, the “growth of spores” value in series [1] (ATCC 43598 spores, any concentration of CotE_H2 aptamers without Clinell sporicidal solution) is given as “unaffected”; in series [2] (setting [11]) it was “unaffected”; in series [3] (setting [11]), “unaffected”. The “MSC of CotE_H2” value in series [1] (setting [7]), in series [2] (setting [8]) and in series [3] (setting [10]) was above 20 µM throughout. In addition, the “effect of the addition of aptamer” value in series [2] and in series [3] was “enhanced” each time.

B3: CDiff_F1: aptamer against C.diff spores, SEQ ID NO: 1; Table 4 lists fragments SEQ ID NO: 24, 44, 45 under the same ID (nucleic acid)
DNA: CCAGTGTAGACTACTCAATGCTCTTACGATCCTCACCTGCTAGCACACCCATATCCCATGCGTACTATCCACAGGTCAACC
modifications: listed as DNA, chemistry not given here
Regarding B3, the “Growth observed after recovering viable C. difficile R20291 spores” value in series [4] (CDiff_F1 aptamer 2.5 μM), in series [4] (CDiff_F1 aptamer 5 μM), in series [4] (CDiff_F1 aptamer 10 μM) and in series [4] (CDiff_F1 aptamer 20 μM) was “+” throughout. In addition, the “effect of the addition of aptamer” value in series [4] (R20291 spores), in series [5] (ATCC 43598 spores) and in series [6] (SH11 spores) was “enhanced” in each case. The “MSC of CDiff_F1” value was above 20 µM in series [4] (R20291 spores, aptamer without Clinell sporicidal solution); above 20 µM in series [5] (ATCC 43598 spores, aptamer without Clinell sporicidal solution); above 20 µM in series [6] (SH11 spores, aptamer without Clinell sporicidal solution). In addition, the “growth of spores” value in series [4] (R20291 spores, only CDiff_F1 aptamers) was “did not affect”; in series [5] (ATCC 43598 spores, any concentration of CDiff_F1 aptamers without Clinell sporicidal solution) it was “unaffected; also recorded: did not affect”; in series [6] (SH11 spores, any concentration of CDiff_F1 aptamers without Clinell sporicidal solution), “unaffected; also recorded: did not affect”. For the same molecule, the “Growth observed after recovering viable C. difficile ATCC 43598 spores” value in series [5] (CDiff_F1 aptamer 2.5 μM), in series [5] (CDiff_F1 aptamer 5 μM), in series [5] (CDiff_F1 aptamer 10 μM) and in series [5] (CDiff_F1 aptamer 20 μM) was “+” in each case. The “fold reduction in the concentration of peracetic acid required for sporicidal activity” value is recorded as “up to 2 fold” in series [5] (spores of the ATCC 43598 strain, after 15 minutes) and “up to 4 fold” in series [6] (spores of the SH11 strain, 20 μM of the aptamer). Besides, the “Growth observed after recovering viable spores” value in series [6] (CDiff_F1 2.5 μM, SH11 spores) was “+”; in series [6] (CDiff_F1 5 μM, SH11 spores) it was “+”; in series [6] (CDiff_F1 10 μM, SH11 spores), “+”; in series [6] (CDiff_F1 20 μM, SH11 spores) it was “+”.
